Reference: paper PMC5779224 (2017)

Key:
[1] = biological target: T1, AnkG 38–903 (MBD + AI-c + AI-b) (rat, UniProt O70511-1 38-903); experiment: ITC
T1 chain: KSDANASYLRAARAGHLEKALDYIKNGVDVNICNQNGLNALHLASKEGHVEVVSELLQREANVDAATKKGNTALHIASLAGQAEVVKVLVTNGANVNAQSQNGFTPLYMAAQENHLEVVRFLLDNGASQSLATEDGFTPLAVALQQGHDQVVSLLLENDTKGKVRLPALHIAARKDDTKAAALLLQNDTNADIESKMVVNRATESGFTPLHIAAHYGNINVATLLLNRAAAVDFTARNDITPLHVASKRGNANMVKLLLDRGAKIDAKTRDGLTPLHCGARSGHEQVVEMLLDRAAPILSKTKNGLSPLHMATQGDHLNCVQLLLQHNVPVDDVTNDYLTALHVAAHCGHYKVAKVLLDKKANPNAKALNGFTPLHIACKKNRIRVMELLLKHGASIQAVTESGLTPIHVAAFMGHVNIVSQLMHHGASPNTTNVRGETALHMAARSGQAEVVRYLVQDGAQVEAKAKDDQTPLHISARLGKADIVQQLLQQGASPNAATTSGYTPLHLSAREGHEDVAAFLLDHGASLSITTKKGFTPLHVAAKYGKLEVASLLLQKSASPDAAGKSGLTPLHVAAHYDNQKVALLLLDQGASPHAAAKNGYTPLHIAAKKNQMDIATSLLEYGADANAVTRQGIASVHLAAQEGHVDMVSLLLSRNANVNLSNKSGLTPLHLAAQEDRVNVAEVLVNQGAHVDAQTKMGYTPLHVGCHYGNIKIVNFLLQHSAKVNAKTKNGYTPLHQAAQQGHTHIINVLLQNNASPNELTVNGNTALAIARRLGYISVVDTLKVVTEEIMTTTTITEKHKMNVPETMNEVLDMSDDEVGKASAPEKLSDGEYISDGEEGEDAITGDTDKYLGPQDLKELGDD

[2] = biological target: T2, AnkG 38–855 (AnkG MBD-AI-c protein; MBD + partial AI-c) (rat, UniProt O70511-1 38-855); experiment: ITC; reported in Wang et al 2014
T2 chain: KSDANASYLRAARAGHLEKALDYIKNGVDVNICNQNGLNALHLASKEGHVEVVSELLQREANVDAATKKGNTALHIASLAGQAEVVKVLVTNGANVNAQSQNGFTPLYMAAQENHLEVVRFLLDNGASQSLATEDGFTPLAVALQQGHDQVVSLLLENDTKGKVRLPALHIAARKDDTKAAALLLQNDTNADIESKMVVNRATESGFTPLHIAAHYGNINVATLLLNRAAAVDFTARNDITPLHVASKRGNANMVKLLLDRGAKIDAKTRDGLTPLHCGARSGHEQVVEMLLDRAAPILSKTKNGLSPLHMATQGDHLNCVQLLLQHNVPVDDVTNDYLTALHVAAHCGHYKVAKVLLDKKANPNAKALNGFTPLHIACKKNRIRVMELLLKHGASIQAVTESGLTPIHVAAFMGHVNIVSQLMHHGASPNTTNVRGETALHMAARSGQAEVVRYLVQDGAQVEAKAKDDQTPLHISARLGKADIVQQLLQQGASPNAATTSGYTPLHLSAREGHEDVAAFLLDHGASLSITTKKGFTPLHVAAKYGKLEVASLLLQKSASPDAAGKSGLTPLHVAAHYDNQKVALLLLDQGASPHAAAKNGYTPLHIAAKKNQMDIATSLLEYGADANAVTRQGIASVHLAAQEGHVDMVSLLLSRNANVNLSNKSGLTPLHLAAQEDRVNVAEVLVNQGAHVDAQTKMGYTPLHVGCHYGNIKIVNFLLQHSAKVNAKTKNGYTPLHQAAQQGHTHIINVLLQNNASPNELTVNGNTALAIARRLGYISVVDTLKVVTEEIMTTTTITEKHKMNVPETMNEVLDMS

- Kd [1]: 4200 nM
- Kd [2]: 210 nM
B1: NF186 (aa 1187–1214) (domain or fragment)
chain: SDDSLVDYGEGGEGQFNEDGSFIGQYTV
